Laboratory results from patent publication US20220177596A1 (Bristol-Myers Squibb, published 2022).
Several values for one entry are separate records, joined by “and”; a condition that tells them apart may be missing. Equal values may be shown once.

Assays:
[1] = biological target: T1, human-CD40 monomer (human, UniProt P25942 21-193, limits assumed); test: SPR 2 pt screen, Ab on protein A
T1 construct: also called hCD40-monomer; human-CD40-monomer protein
Protocol: (§1) The VH sequences were formatted in the context of an IgG1.3f isotype. The Vκ sequences were formatted as a full light chain with a common CL sequence. All 55 combinations of these humanized HC and LC constructs, as well as the chimeric Y1238 molecule were expressed as 3 ml supernatants for binding analysis by SPR. Each of the 56 supernatants, as well as a purified Y1238-chimeric IgG1 antibody, was captured on a protein A sensor chip and tested for binding to two concentrations (i.e., 200 nM and 1000 nM) of hCD40-monomer using BIAcore™ SPR in a screening assay. All antibodies, except for those containing hz-HC3, captured at high levels (>300 RU) using a 100-fold dilution of the expression supernatant, indicating a high antibody titer in the supernatant except for the hz-HC3 samples. The kinetic data for the two concentrations of hCD40-monomer were fit to a 1:1 Langmuir model, to yield estimates of the kinetic and affinity values for these interactions, and for comparison of the different molecules. […] Also, for a given heavy chain, the antibodies with light chains hz-LC1 or hz-LC2 had higher CD40 affinity than those with hz-LC3, hz-LC4 or hz-LC5.

[2] = biological target: T1, human-CD40 monomer; test: SPR full kinetics, Ab on protein A
Protocol: as §1, with “Each of the 56 supernatants, as well as a purified Y1238-chimeric IgG1 antibody, was captured on a protein A sensor chip and tested for binding to two concentrations (i.e., 200 nM and 1000 nM) of hCD40-monomer using BIAcore™ SPR in a screening assay.” left out

[3] = biological target: T1, human-CD40 monomer; test: SPR, Ab captured on protein A, CD40 monomer analyte
Protocol: These chimeric antibodies were tested for CD40 and FcgR binding by SPR, as well as for iDC activation.

[4] = biological target: human CD40 on primary human cells (tonsillar B cells, immature dendritic cells) (human, UniProt P25942 21-277); test: cell-based or functional assay
[5] = biological target: T1, human-CD40 monomer; test: SPR, Ab captured on protein A, CD40 monomer analyte; remark: listed apart in the source
From the text: Based on the supernatant screening SPR data and bias towards constructs with fewer framework back-mutations, a subset of humanized Y1238 antibodies were selected for expression, purification, and further characterization. Two of these antibodies (i.e., Y1238-hz1 and Y1238-hz2) were formatted with P238K and N297A isotypes (i.e., SEQ ID NOS: 39, 40, 42, and 43 for heavy chains; see TABLE 15 for light chains) and tested for CD40 and FcgR binding by SPR. […] The Fc domain is underlined.

[6] = biological target: T2, hCD64-His (human, UniProt P12314 16-288, limits assumed); test: SPR (BIAcore): 7 µg/ml hCD64-His captured on an anti-His Fab surface, 1 µM antibody as analyte
T2 construct: Generated in house; captured on anti-His Fab; also called hFcgRI; FcgRI
Protocol: FCGR BINDING SPR: FcgR binding can be measured in vitro using purified FcgRs using methods such as BIAcore™ surface plasmon resonance (SPR). One method tests the binding of purified antibodies to His-tagged FcgR proteins (FcgR-His) which are captured on the immobilized Fab fragment of an anti-His antibody. These experiments are performed on either a BIAcore™ T100 or BIAcore™ T200 instrument (GE Healthcare Life Sciences, Marlborough, Mass.) at 25° C. The Fab fragment from a murine anti-6×His antibody (generated in house) is immobilized on a CMS sensor chip using standard ethyl(dimethylaminopropyl) carbodiimide (EDC)/N-hydroxysuccinimide (NHS) chemistry with ethanolamine blocking, to a density of ˜3000 RU in a running buffer of 10 mM HEPES pH 7.4, 150 mM NaCl, 3 mM EDTA, 0.05% surfactant p20 (HBS-EP+). All remaining studies are performed using a running buffer of 10 mM NaPO4, 130 mM NaCl, 0.05% p20 (PBS-T) pH 7.1. Various FcγR proteins containing a C-terminal 6× poly-histidine tag (generated in house) are captured on this surface (typically using FcgR-his protein concentration of ˜7 μg/ml) using a contact time of 30 sec at 10 μl/min. Various concentrations of purified antibody are tested for binding, for example using an association time of 120 seconds at 30 μl/min, and a dissociation time of 120 seconds at 30 μl/min. FcgR proteins tested in these studies include the “high affinity” FcgR CD64 (hFcgRI), as well as the “low affinity” FcgRs CD32a-H131 (FcgRIIa-H131), CD32a-R131 (FcgRIIa-R131), CD32b (FcgRIIb), CD16a-V158 (FcgRIIIa-V158), and CD16b-NA2 (FcgRIIIb-NA2).

[7] = biological target: T1, human-CD40 monomer; test: SPR, Ab captured on protein A, CD40 monomer analyte; remark: listed apart in the source

human CD40 on primary human cells (tonsillar B cells, immature dendritic cells), sequence (P25942 21-277 limits assumed): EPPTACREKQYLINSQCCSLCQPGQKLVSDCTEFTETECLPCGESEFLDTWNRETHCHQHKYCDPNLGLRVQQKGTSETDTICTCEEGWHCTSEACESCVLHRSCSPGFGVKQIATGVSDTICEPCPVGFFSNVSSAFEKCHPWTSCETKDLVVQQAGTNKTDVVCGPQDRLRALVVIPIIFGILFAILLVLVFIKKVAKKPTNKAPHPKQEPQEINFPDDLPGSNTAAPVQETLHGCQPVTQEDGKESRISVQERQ
T1 sequence (P25942 21-193 limits assumed): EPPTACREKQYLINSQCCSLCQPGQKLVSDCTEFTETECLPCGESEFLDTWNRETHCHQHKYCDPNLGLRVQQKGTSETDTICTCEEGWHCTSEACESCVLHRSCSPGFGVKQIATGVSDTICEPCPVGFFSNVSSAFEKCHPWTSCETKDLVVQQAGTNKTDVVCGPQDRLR
T2 sequence (P12314 other isoform, or with tags, fused parts or gaps limits assumed): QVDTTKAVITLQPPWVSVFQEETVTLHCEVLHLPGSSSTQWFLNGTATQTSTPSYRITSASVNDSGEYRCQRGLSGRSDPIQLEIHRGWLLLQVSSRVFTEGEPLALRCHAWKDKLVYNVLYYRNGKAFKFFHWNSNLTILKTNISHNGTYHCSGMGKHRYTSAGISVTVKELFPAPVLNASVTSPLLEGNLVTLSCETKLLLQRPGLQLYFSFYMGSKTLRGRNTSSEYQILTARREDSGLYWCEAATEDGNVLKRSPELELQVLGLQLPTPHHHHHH

B1: humanized Y1238 hz1 (hz-HC1 / hz-LC1), IgG1.3f (antibody, V domains shown)
VH: QVQLVQSGAEVKKPGASVKVSCKASGYAFTNYLIEWVRQAPGQGLEWMGVINPGSGGTNYNEKFKGRVTMTRDTSISTAYMELSRLRSDDTAVYYCARSQLGRRFDYWGQGTLVTVSS
VL: DIQMTQSPSSLSASVGDRVTITCKASQDVRTGVAWYQQKPGKAPKLLIYSASYRNTGVPSRFSGSGSGTDFTFTISSLQPEDIATYYCQQHYSPPYTFGGGTKVEIK
notes: IgG1.3f heavy constant, common CL; expression supernatant; also called Sup 1
Kd [1]: 4.2 nM | koff [1]: 0.0002 s⁻¹ | kon [1]: 48000 M⁻¹ s⁻¹ | Kd [2]: 3 nM | koff [2]: 0.00019 s⁻¹ | kon [2]: 65000 M⁻¹ s⁻¹

B2: Y1238-IgG1.3f (antibody)
heavy: QVQLQQSGAELVRPGTSVKVSCKASGYAFTNYLIEWVKQRPGQGLEWIGVINPGSGGTNYNEKFKGKATLTADKSSSTAYMQLSSLTSDDSAVYFCARSQLGRRFDYWGQGTTLTVSSASTKGPSVFPLAPSSKSTSGGTAALGCLVKDYFPEPVTVSWNSGALTSGVHTFPAVLQSSGLYSLSSVVTVPSSSLGTQTYICNVNHKPSNTKVDKRVEPKSCDKTHTCPPCPAPEAEGAPSVFLFPPKPKDTLMISRTPEVTCVVVDVSHEDPEVKFNWYVDGVEVHNAKTKPREEQYNSTYRVVSVLTVLHQDWLNGKEYKCKVSNKALPAPIEKTISKAKGQPREPQVYTLPPSREEMTKNQVSLTCLVKGFYPSDIAVEWESNGQPENNYKTTPPVLDSDGSFFLYSKLTVDKSRWQQGNVFSCSVMHEALHNHYTQKSLSLSPGK
light: DIVMTQSHKFMSTSVGDRVSITCKASQDVRTGVAWYQQKPGQSPKLLIYSASYRNTGVPDRFTGSRSGTDFTFTISSVQAEDLAVYYCQQHYSPPYTFGGGTKLEIKRTVAAPSVFIFPPSDEQLKSGTASVVCLLNNFYPREAKVQWKVDNALQSGNSQESVTEQDSKDSTYSLSSTLTLSKADYEKHKVYACEVTHQGLSSPVTKSFNRGEC
notes: Chimeric mouse/human anti-human CD40; also called Y1238-hIgG1.3f; chimeric Y1238 IgG1.3f
Kd [3]: 2.1 nM | koff [3]: 0.00021 s⁻¹ | kon [3]: 100000 M⁻¹ s⁻¹

B3: chimeric Y1238 supernatant (Sup 56; HC-Chim / LC-Chim) (antibody)
VH: QVQLQQSGAELVRPGTSVKVSCKASGYAFTNYLIEWVKQRPGQGLEWIGVINPGSGGTNYNEKFKGKATLTADKSSSTAYMQLSSLTSDDSAVYFCARSQLGRRFDYWGQGTTLTVSS
light: DIVMTQSHKFMSTSVGDRVSITCKASQDVRTGVAWYQQKPGQSPKLLIYSASYRNTGVPDRFTGSRSGTDFTFTISSVQAEDLAVYYCQQHYSPPYTFGGGTKLEIKRTVAAPSVFIFPPSDEQLKSGTASVVCLLNNFYPREAKVQWKVDNALQSGNSQESVTEQDSKDSTYSLSSTLTLSKADYEKHKVYACEVTHQGLSSPVTKSFNRGEC
notes: Tested as expression supernatant
Kd [1]: 5.6 nM | koff [1]: 0.00032 s⁻¹ | kon [1]: 57000 M⁻¹ s⁻¹ | Kd [2]: 2.6 nM | koff [2]: 0.00022 s⁻¹ | kon [2]: 86000 M⁻¹ s⁻¹

B4: purified Y1238-chimeric IgG1 antibody (antibody)
VH: QVQLQQSGAELVRPGTSVKVSCKASGYAFTNYLIEWVKQRPGQGLEWIGVINPGSGGTNYNEKFKGKATLTADKSSSTAYMQLSSLTSDDSAVYFCARSQLGRRFDYWGQGTTLTVSS
light: DIVMTQSHKFMSTSVGDRVSITCKASQDVRTGVAWYQQKPGQSPKLLIYSASYRNTGVPDRFTGSRSGTDFTFTISSVQAEDLAVYYCQQHYSPPYTFGGGTKLEIKRTVAAPSVFIFPPSDEQLKSGTASVVCLLNNFYPREAKVQWKVDNALQSGNSQESVTEQDSKDSTYSLSSTLTLSKADYEKHKVYACEVTHQGLSSPVTKSFNRGEC
notes: Called IgG1; also called Y1238-IgG1; chimeric, purified
Kd [1]: 6.7 nM and 6.9 nM and 8.6 nM | koff [1]: 0.00038 s⁻¹ and 0.0004 s⁻¹ and 0.0005 s⁻¹ | kon [1]: 56000 M⁻¹ s⁻¹ and 59000 M⁻¹ s⁻¹ and 58000 M⁻¹ s⁻¹ | Kd [2]: 3.2 nM | koff [2]: 0.00027 s⁻¹ | kon [2]: 83000 M⁻¹ s⁻¹

B5: Y1238-hz2-N297A (antibody, human IgG1, kappa, N297A)
heavy: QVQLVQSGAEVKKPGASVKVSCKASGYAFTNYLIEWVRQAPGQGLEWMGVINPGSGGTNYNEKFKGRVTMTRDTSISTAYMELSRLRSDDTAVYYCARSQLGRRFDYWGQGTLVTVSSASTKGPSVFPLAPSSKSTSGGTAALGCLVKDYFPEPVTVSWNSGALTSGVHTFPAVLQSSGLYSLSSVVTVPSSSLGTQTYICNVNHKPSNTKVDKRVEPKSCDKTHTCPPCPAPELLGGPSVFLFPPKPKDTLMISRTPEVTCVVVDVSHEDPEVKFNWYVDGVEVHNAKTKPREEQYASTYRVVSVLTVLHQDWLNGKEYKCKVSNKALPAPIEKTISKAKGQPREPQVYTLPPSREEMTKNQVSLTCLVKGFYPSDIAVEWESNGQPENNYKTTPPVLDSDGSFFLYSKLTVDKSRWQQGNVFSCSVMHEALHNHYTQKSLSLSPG
light: DIQMTQSPSSLSASVGDRVTITCKASQDVRTGVAWYQQKPGKAPKLLIYSASYRNTGVPSRFSGSRSGTDFTFTISSLQPEDIATYYCQQHYSPPYTFGGGTKVEIKRTVAAPSVFIFPPSDEQLKSGTASVVCLLNNFYPREAKVQWKVDNALQSGNSQESVTEQDSKDSTYSLSSTLTLSKADYEKHKVYACEVTHQGLSSPVTKSFNRGEC
notes: Humanized Y1238
IC50 for inhibition of proliferation of B cells, CD40L Trimer [4]: 2.9 ng/mL | IC50 for inhibition of proliferation of B cells, CHO CD40L [4]: 20 ng/mL | Kd [5]: 6 nM | koff [5]: 0.0004 s⁻¹ | kon [5]: 66000 M⁻¹ s⁻¹

B6: Y1238-hz2-P238K (antibody, human IgG1, kappa)
heavy: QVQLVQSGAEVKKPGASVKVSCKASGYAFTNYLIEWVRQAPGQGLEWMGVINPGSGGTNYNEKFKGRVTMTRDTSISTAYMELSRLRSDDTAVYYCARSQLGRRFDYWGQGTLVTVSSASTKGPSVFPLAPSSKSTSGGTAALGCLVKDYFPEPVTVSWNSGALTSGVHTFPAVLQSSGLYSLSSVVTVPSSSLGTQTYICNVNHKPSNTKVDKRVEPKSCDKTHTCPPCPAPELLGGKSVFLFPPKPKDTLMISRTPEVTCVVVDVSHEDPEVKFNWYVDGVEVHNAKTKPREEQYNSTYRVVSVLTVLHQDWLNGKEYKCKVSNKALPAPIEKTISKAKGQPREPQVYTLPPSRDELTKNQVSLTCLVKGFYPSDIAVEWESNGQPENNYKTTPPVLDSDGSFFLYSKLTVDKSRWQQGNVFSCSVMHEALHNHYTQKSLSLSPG
light: DIQMTQSPSSLSASVGDRVTITCKASQDVRTGVAWYQQKPGKAPKLLIYSASYRNTGVPSRFSGSRSGTDFTFTISSLQPEDIATYYCQQHYSPPYTFGGGTKVEIKRTVAAPSVFIFPPSDEQLKSGTASVVCLLNNFYPREAKVQWKVDNALQSGNSQESVTEQDSKDSTYSLSSTLTLSKADYEKHKVYACEVTHQGLSSPVTKSFNRGEC
notes: Humanized Y1238
IC50 for inhibition of proliferation of B cells, CD40L Trimer [4]: 2.7 ng/mL | IC50 for inhibition of proliferation of B cells, CHO CD40L [4]: 21 ng/mL | Kd [5]: 6.2 nM | koff [5]: 0.00043 s⁻¹ | kon [5]: 70000 M⁻¹ s⁻¹

B7: BI-mAb-B (antibody, human IgG1, kappa, L234A L235A, V domains shown)
VH: EVQLVESGGGLVKPGGSLRLSCAASGFTFSDYGMHWVRQAPGKGLEWVAYISSGNRIIYYADTVKGRFTISRDNAKNSLYLQMNSLRAEDTAVYYCARQDGYRYAMDYWGQGTLVTVSS
VL: DIVMTQSPDSLAVSLGEKVTINCKSSQSLLNSGNQKNYLTWHQQKPGQPPKLLIYWTSTRESGVPDRFSGSGSGTDFTLTISSLQAEDVAVYYCQNDYTYPLTFGGGTKVEIKR
notes: Comparator anti-CD40 antibody; also called Antibody B (U.S. Pat. No. 9,090,696)
IC50 for inhibition of proliferation of B cells, CD40L Trimer [4]: 7.4 ng/mL | Kd [5]: 35 nM | koff [5]: 0.0021 s⁻¹ | kon [5]: 61000 M⁻¹ s⁻¹

B8: 5F11-45-CTza (antibody, human IgG1, kappa)
heavy: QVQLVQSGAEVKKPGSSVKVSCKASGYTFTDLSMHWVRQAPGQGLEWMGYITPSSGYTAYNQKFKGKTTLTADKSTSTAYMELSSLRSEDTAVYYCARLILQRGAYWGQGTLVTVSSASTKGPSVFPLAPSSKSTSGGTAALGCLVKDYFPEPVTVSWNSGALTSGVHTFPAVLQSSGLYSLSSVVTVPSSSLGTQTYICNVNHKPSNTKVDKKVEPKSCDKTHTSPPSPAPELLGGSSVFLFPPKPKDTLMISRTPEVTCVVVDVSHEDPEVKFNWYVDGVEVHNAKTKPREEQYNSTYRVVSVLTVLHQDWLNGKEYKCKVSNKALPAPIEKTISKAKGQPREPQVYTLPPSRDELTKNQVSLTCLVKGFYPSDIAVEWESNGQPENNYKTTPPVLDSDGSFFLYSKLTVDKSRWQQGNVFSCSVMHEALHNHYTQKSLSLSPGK
light: DIVLTQSPDSLAVSLGERATINCRASKNVDSYGNSFMHWYQQKPGQPPKLLIYRASNLESGVPDRFSGSGSGTDFTLTISSLQAEDVAVYYCQQSNEDPLTFGQGTKLEIKRTVAAPSVFIFPPSDEQLKSGTASVVCLLNNFYPREAKVQWKVDNALQSGNSQESVTEQDSKDSTYSLSSTLTLSKADYEKHKVYACEVTHQGLSSPVTKSFNRGEC
binding result [6]: binds | Kd [7]: 1.6 nM | koff [7]: 0.00014 s⁻¹ | kon [7]: 88000 M⁻¹ s⁻¹

B9: 5F11-45-N297A (antibody, human IgG1, kappa, N297A)
heavy: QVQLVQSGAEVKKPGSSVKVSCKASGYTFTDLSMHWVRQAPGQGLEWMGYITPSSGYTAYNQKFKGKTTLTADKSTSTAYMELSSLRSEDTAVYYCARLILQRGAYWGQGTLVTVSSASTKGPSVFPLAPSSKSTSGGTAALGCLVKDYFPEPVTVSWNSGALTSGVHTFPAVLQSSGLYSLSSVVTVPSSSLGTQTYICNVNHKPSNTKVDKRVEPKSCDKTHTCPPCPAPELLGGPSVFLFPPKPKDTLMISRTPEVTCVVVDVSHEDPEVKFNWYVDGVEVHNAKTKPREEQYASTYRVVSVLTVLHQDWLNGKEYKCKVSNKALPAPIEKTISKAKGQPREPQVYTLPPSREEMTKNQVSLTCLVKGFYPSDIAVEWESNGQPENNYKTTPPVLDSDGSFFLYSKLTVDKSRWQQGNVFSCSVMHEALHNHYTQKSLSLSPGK
light: DIVLTQSPDSLAVSLGERATINCRASKNVDSYGNSFMHWYQQKPGQPPKLLIYRASNLESGVPDRFSGSGSGTDFTLTISSLQAEDVAVYYCQQSNEDPLTFGQGTKLEIKRTVAAPSVFIFPPSDEQLKSGTASVVCLLNNFYPREAKVQWKVDNALQSGNSQESVTEQDSKDSTYSLSSTLTLSKADYEKHKVYACEVTHQGLSSPVTKSFNRGEC
binding result [6]: binds | Kd [7]: 2.8 nM | koff [7]: 0.00022 s⁻¹ | kon [7]: 80000 M⁻¹ s⁻¹
